Experimental data: US5728561

How the values were obtained:
[1] = biological target: E1-beta of plasmid pCD705, with the C-terminal part of the E1-beta open reading frame in the wrong orientation (Streptomyces avermitilis)
[2] = biological target: E1-beta subunit of S. avermitilis BCKDH (Streptomyces avermitilis)

E1 BCKDH specific activity [1]: 0.5 pmol/min/mg
E1 BCKDH specific activity [2]: 13.7 pmol/min/mg
Substance: E1-alpha subunit of S. avermitilis BCKDH (enzyme)
